Data taken from article PMC6092944.

The substances below were run against His6-MBP-PadeB1 (assay: fluorescence polarisation).

Substance PadeA(−19 to −7) peptide has a Ki of 119 nM.

With “Fl-PadeA (PadeA labelled with fluorescein-5-maleimide) (peptide)” the Kd was 69 nM.

Target: His6-MBP-PadeB1
Assay: fluorescence polarisation
Remark: another data set of the same source

Compared with PadeA variant P–12A/Y–15A (peptide), PadeA variant A1G (peptide) is 11-fold lower in Ki: 1340 nM for the first, 127 nM for the second.

First: PadeA variant Y–15A (peptide)
Second: PadeA variant P–12A (peptide)
The Ki of the first is 2.5-fold higher: 1180 nM for the first, 476 nM for the second.

PadeA(−19 to −7) peptide and PadeA precursor peptide, wild type (WT) are within 1.5-fold of each other in Ki: 120 nM for the first, 137 nM for the second.

Work on PadeA variant T–2A (peptide) yielded a Ki of 152 nM.
